According to article PMC4976375, “Structure of a Highly Active Cephalopod S-crystallin Mutant: New Molecular Evidence for Evolution from an Active Enzyme into Lens-Refractive Protein” (Scientific Reports, 2016):

Tests used:
[1] = target: Wild-type S-crystallin (OctS4) of Octopus vulgaris (Octopus vulgaris); experiment: AUC; sedimentation velocity, 20 °C, 42,000 rpm, protein 0.025–1.0 mg/ml in 50 mM phosphate, pH 6.5; continuous c(M) distribution by SEDFIT
Octopus GST-σ = system: T1, Octopus GST-σ; experiment: GSH-CDNB conjugation, absorbance […] nm; type: biochemical, Octopus vulgaris; conditions: GSH 10 mM; apparent; read-out: Km,CDNB (mM) ^c
T1 construct: gene GST-sigma

Compound	stoichiometry N [1]	Km (Octopus GST-σ) [mM]
Wild-type S-crystallin (OctS4) of Octopus vulgaris (natural protein)	2	
O=[N+]([O-])c1ccc(Cl)c([N+](=O)[O-])c1 [CDNB, 1-chloro-2,4-dinitrobenzene]		0.47 ± 0.04
